Substitutions are numbered along the chain they refer to.
What was measured:
[1] = molecular target: HCV E1E2 antigen, isolate UKN3A1.28c (hepatitis C virus, isolate UKN3A1.28c); assay: ELISA, Fab on E1E2 antigen
[2] = molecular target: HCV E1E2 antigen, isolate UKN1B12.16 (hepatitis C virus, isolate UKN1B12.16); assay: ELISA, Fab on E1E2 antigen
[3] = molecular target: HCV E1E2 antigen, isolate UKN4.21.16 (hepatitis C virus, isolate UKN4.21.16); assay: ELISA, Fab on E1E2 antigen
[4] = molecular target: HCV E1E2 antigen, isolate J6E3 (hepatitis C virus, isolate J6E3, UniProt P26660 192-383; P26660 384-750); assay: ELISA, Fab on E1E2 antigen
[5] = molecular target: HCV E1E2 antigen, isolate UKN6.5.8 (hepatitis C virus, isolate UKN6.5.8); assay: ELISA, Fab on E1E2 antigen
[6] = molecular target: HCV E1E2 antigen, isolate UKN5.15.7 (hepatitis C virus, isolate UKN5.15.7); assay: ELISA, Fab on E1E2 antigen
[7] = molecular target: HCV E1E2 antigen, isolate UKN2B1.1 (hepatitis C virus, isolate UKN2B1.1); assay: ELISA, Fab on E1E2 antigen
[8] = molecular target: HCV E1E2 antigen, isolate CH35 (hepatitis C virus, isolate CH35); assay: ELISA, Fab on E1E2 antigen
[9] = molecular target: T1, HCV E1E2 antigen, isolate JFH (hepatitis C virus, isolate JFH, UniProt Q99IB8 192-383; Q99IB8 384-750); assay: ELISA, Fab on E1E2 antigen
T1 construct: also called JFH-1

[10] = molecular target: HCV E1E2 antigen, isolate OH8 (hepatitis C virus, isolate OH8); assay: ELISA, Fab on E1E2 antigen
[11] = molecular target: HCV E1E2 complex, isolate H77 (genotype 1a) (hepatitis C virus genotype 1a, isolate …, UniProt P27958 192-383; P27958 384-746); assay: Fab screen after panning on E1E2 (H77)

B1: Fab S1 (Fab, V domains shown)
VH: VQLLEQSGAEVKKPGTSVKVSCTASGYIFTSFGISWVRQAPGQGLEWMGRIDTYNGKTNYAQKLQGRVTMTTDTYTSTAYMELRSLTSDDTAVYYCARDDCRSSTCYLAQHNWQAYYHDSWGQGTLVTVSS
VL: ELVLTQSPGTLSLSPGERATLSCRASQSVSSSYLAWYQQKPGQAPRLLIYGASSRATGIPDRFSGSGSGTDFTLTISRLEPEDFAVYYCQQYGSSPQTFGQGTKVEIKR
In the case of B1, the “OD 450 nm” value [1] is reported as 0.55 OD 450 nm, the “OD 450 nm” value [2] is reported as 0.26 OD 450 nm and the “OD 450 nm” value [3] is reported as 1.12 OD 450 nm. For the same binder, the “OD 450 nm” value [4] was 0.07 OD 450 nm, the “OD 450 nm” value [5] was 0.08 OD 450 nm and the “OD 450 nm” value [6] was 0.18 OD 450 nm. For the same binder, the “OD 450 nm” value [7] was 0.03 OD 450 nm, the “OD 450 nm” value [8] was 0.79 OD 450 nm and the “OD 450 nm” value [9] was 0.21 OD 450 nm. The “OD 450 nm” value [10] was 1.32 OD 450 nm.

B2: Fab B4 (Fab, V domains shown)
VH: VQLLEQSGAEVKKPGSSVKVSCRASGSPFSSYTITWVRQAPGQGLEWMGGIILMTGKANYAQKFQGRVTITADRSTTTAYMEMSSPTSDDTAIYYCARDPYVYAGDDVWSLSRWGQGTLVIVSP
VL: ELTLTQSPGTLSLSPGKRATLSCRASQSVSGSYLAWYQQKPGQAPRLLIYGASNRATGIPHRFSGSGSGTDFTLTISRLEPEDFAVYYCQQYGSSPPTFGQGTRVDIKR
B2: binds [11].

B3: Fab B6b (Fab, V domains shown)
VH: B2 VH with F29Y, S75A, T77A, P86L, L119P, I121T, P124S
VL: ELTQSPGTLSLSPGERATLSCRASQSVSRGNLAWYQQKRGQPPRLLIYGASYRATGIPDRFSGSGSGTDFTLTITKLEPEDFAVYYCQQYGHSLAFGQGTKVEIKG
B3: binds [11].

B4: Fab B6c (Fab, V domains shown)
VH: B2 VH with F29Y, S75A, T77A, P86L, L119P, I121T, P124S
VL: not shown
B4: binds [11].

B5: Fab B6a (Fab, V domains shown)
VH: B2 VH with F29Y, S75A, T77A, P86L, L119P, I121T, P124S
VL: LTQSPGTLSLSPGERATLSCRASQSVASNYVAWYQQKPGQAPRLLIYGTSYRATGIPGRFSGSGSGTDFTLTISGLEPEDFAVYYCQQYGSSPQTFGQGTKVEIKR
B5: binds [11].

B6: Fab J5 (Fab, V domains shown)
VH: VQLLEQSGAEVKKPGSSVTVSCKASGGTVSSYPITWVRQAPGQGLEWMGGTIPVFGAPKYAPKFQGRVTITADESTSTAYMELRSLRSDDTAMYYCAIVGMRGITLVGGLAMNWLDPWGQGTLVIVSS
VL: ELTQSPGTLSLSPGERATLSCRASQSVSSNYLAWYQQKPGQAPRLLIYGASSRATGIPDRFSGSGSGTDFTLSISRLEPEDFAVYYCQQYGSSPLTFGGGTKVEIKR
B6: binds [11].

B7: Fab S2 (Fab, V domains shown)
VH: B1 VH with T16A
VL: B6 VL with G7A, N30R, Y31F, S73T, L95Q, G99Q
B7: binds [11].

B8: Fab L5 (Fab, V domains shown)
VH: VQLLEQSGTEVKKPGSSVKVSCKVPGDTFRSYVITWVRQAPGQGLEWLGGILPFFGTTNLAQKFQGRVTLTADESTTTAYMELSSLRAEDTAVYYCAKAGDLAFGGVIAGGVPHLSHFDPWGQGTLVTVSS
VL: B6 VL with S28R, S73T, V84M, P94M, L95C, T96S, G99Q
B8: binds [11].

B9: Fab E2 (antibody clone, not the glycoprotein) (Fab, V domains shown)
VH: VGLLEQSGAELKKPGSSVKVSCKPSDGTFRAYTLSWVRQAPGQTLEWLGRIMPTVGITNYAQKFQGRVTISADMSTATAYMQLSSLRPDDTAIYYCAKGPYVGLGEGFSEWGQGTLVTVSS
VL: ELTQSPLSLPVTLGQPASISCRSSQSLVYSDGNTYLIWFQQRPGQSPRRLIYNVSNRDSGVPDRFSGSGSGTDFTLKISRVEAEDLGVYYCMQGAHWPPTFGQGTRLEIKG
B9: binds [11].

B10: Fab E3 (Fab, V domains shown)
VH: B9 VH with T44A, L48M, Q62R, Q82E, P88S
VL: ELVLTQSPLSLPVTLGQPASISCRSTQSLVYSDGNTYLNWFHQRPGQPPRRLIYKVSNRDSGVPERFSGSGSGTDFALKISRVEADDVGIYYCMQGAHWPPTFGGGTKVEISR
B10: binds [11].

B11: Fab T1 (Fab, V domains shown)
VH: EVQLLESGGGLVQPGGSLRLSCAASGFTFSRFWMHWVRQAPGKGLVWVARINSDGSSTTYADSVKGRFTISRDNAKNTLYLQMNSLRDEDTAVYFCARGGDSSSPYYYPMDVWGQGTTVAVSS
VL: not shown
In the case of B11, the “OD 450 nm” value [1] is reported as 0 OD 450 nm, the “OD 450 nm” value [2] is reported as 0 OD 450 nm and the “OD 450 nm” value [3] is reported as 0.08 OD 450 nm. The “OD 450 nm” value [4] was 0 OD 450 nm, the “OD 450 nm” value [5] was 0.01 OD 450 nm and the “OD 450 nm” value [6] was 0.07 OD 450 nm. The “OD 450 nm” value [7] was 0 OD 450 nm, the “OD 450 nm” value [8] was 0 OD 450 nm and the “OD 450 nm” value [9] was 0 OD 450 nm. For the same binder, the “OD 450 nm” value [10] was 0.15 OD 450 nm.

B12: Fab U3 (Fab, V domains shown)
VH: VQLLEQSGAEVKRPGSSVKISCKNSGGTFITQAMSWVRQAPGQGLEWMGGIIPIFGTVNYAQKILGRVTITADEDTVSMELSSLGFEDTAVYYCAREVNLKSWNLAHPDVFDIWGQGTLVTVSS
VL: ELTQSPSSLSASVGDRVTITCRASQSIRSYLNWYQQKPGKAPNLLIYSASNLQSGVPSRFRGSGSGTDFTLTISSLQPEDFATYYCQQSYRTPRTFGQGTKVESKR
B12: binds [11].

B13: Fab U1 (Fab, V domains shown)
VH: VQLLEQSGPEVKRPGTSVKMSCKISGGASITQAMSWVRQAPGQGLEWMGGITPIFGTVNYAQKILGRVTITADEDTVSLELSSLKSEDTAVYYCAREVNLKTWNLAHPNVFDVWGQGTMLTVSS
VL: B12 VL with R28S, Y30F, N43K, S48A, N51S, S58P, R61S, R91S, V102L, S104I
With B13 the “OD 450 nm” value [1] was 0.11 OD 450 nm, the “OD 450 nm” value [2] was 0.11 OD 450 nm and the “OD 450 nm” value [3] was 0 OD 450 nm. The “OD 450 nm” value [4] was 0.08 OD 450 nm, the “OD 450 nm” value [5] was 0.06 OD 450 nm and the “OD 450 nm” value [6] was 0.06 OD 450 nm. For the same binder, the “OD 450 nm” value [7] was 0 OD 450 nm, the “OD 450 nm” value [8] was 0.07 OD 450 nm and the “OD 450 nm” value [9] was 0.07 OD 450 nm. For the same binder, the “OD 450 nm” value [10] was 0.26 OD 450 nm.

B14: Fab B5 (Fab, V domains shown)
VH: EVQLLESGAEVKKPGSSVKVSCRASGSPYSSYTITWVRQAPGQGLEWMGGIILMTGKANYAQKFQGRVTITADRATATAYMEMSSLTSDDTAIYYCARDPYVYAGDDVWSLSRWGQGTPVIVSS
VL: ELTQSPLSLPVIIGQPASISCSSSESLVDSDGNTYLHWFQQRPGQSPRRLIYKVSNRDAGVPDRFSGSGSGTDFTLKISRVEAEDVAVYYCMQATHWPPITFGPGTRLEVKR
B14: binds [11].

B15: Fab R1 (Fab, V domains shown)
VH: VQLLEQSGAEVKKPGASVKVSCKASGYTFSIYGVAWVRQAPGQGLEWMGWISPQNGDTHSPQKFQGRLTMTTDTSTSTAYMELRSLRSDDTAVYFCARDYGVNFGGGSEHNLDYWGRGTRVTVSS
VL: ELTQSPLSLPVTPGEPASISCRSSYSLLHINGYKYLDWYLQRPGQSPQLLIYLGSNRAPGVPDRFSGSGSGTSFTLKISRVEAEDVGVYYCMQSLQAPWTFGQGTKVEMKR
B15 was tested, and the “OD 450 nm” value [1] was 0 OD 450 nm, the “OD 450 nm” value [2] was 0.03 OD 450 nm and the “OD 450 nm” value [3] was 0.01 OD 450 nm. The “OD 450 nm” value [4] was 0 OD 450 nm, the “OD 450 nm” value [5] was 0.05 OD 450 nm and the “OD 450 nm” value [6] was 0 OD 450 nm. For the same binder, the “OD 450 nm” value [7] was 0.02 OD 450 nm, the “OD 450 nm” value [8] was 0.15 OD 450 nm and the “OD 450 nm” value [9] was 0 OD 450 nm. For the same binder, the “OD 450 nm” value [10] was 0.5 OD 450 nm.

B16: Fab U2 (Fab, V domains shown)
VH: VQLLEQSGAEVKRPGSSVKLSCKNSGGTFITQAMSWVRQAPGQGLEWMGGIIPVFGTVNYAQNILDRATATADEDTFSLELRGLRLEDTAVYYCAREVNLKTWNLARPDVFDIWGPGTLVTVSS
VL: ELTQSPSSLSASIGDRVTIPCRASQSILNHLNWYQQKPGQPPKLLIFAASNLQSGVPSRFSGSGSGTDFTLTISSLQTEDFATYYCQQSYSTPRTFGQGTKVEVKR
B16: binds [11].

B17: Fab L6 (Fab, V domains shown)
VH: B8 VH with A40S, A88S, S131A
VL: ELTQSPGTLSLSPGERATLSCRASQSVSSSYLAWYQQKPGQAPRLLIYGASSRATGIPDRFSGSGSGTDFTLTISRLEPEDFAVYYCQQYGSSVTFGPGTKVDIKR
B17: binds [11].
